In patent US20250051478A1 (Y MABS THERAPEUTICS, published 2025):

Legend:
[1] = target: T1, CD38 (UniProt P28907 43-300, limits assumed); experiment: SPR; YMS9d diluted to 1 mg/ml from the 10 mg/ml solution
T1 construct: also called cyclic ADP ribose hydrolase

[2] = target: T1, CD38; experiment: SPR; YMS9d diluted to 1 mg/ml from the 20 mg/ml solution

B1: YMS9d (bispecific antibody)
chain: QVQLQESGPGLVKPSETLSLTCTVSGFSLTSYGVHWVRQPPGKGLEWIGVMWRGGSTDYNAAFKSRVTISKDNSKNQVSLKLSSVTAADTAVYYCAKSMITTGFVMDSWGQGTLVTVSSGGGGSGGGGSGGGGSGGGGSGGGGSGGGGSDIQLTQSPSSLSASVGDRVTITCKASEDIYNRLTWYQQKPGKAPKLLISGATSLETGVPSRFSGSGSGKDYTFTISSLQPEDFATYYCQQYWSNPYTFGQGTKLEIKGGGGSGGGGSGGGGSGGGGSHVQLVESGGGLVQPGGSLRLSCAASGFSLTDYGVHWVRQAPGKGLEWLGVIWSGGGTAYNTALISRFTISRDNSKNTLYLQMNSLRAEDTAVYYCARRGSYPYNYFDAWGQGTLVTVSSGGGGSGGGGSGGGGSGGGGSGGGGSGGGGSQAVVTQEPSLTVSPGGTVTLTCGSSTGAVTASNYANWVQQKPGQAPRGLIGGHNNRPPGVPARFSGSLLGGKAALTLLGAQPEDEAEYYCALWYSDHWVIGGGTKLTVLGTPLGDTTHTSGKPLDGEYFTLQIRGRERFEMFRELNEALELKDAQAGKEPGGSGGAP
modifications: Self-assembles into tetramers through the p53 SADA domain; labelled with 125I in Example 8.
notes: also called CD38-SADA construct without disulfide bonds; CD38-SADA
Kd [1]: 7.5 nM
koff [1]: 0.0011 s⁻¹
kon [1]: 140000 M⁻¹ s⁻¹
Kd [2]: 8.1 nM
koff [2]: 0.0011 s⁻¹
kon [2]: 130000 M⁻¹ s⁻¹
